Laboratory results: patent US9376684
Values belong to the substance of their own block, whether it stands above or below them.

Experiments:
[1] = target: TFPI1-276-CD4 (UniProt P10646)
[2] = target: TFPI1-183-CD4 (UniProt P10646)
[3] = target: TFPI1-276-CD4 (UniProt P10646); test: flow cytometry, DAP.3 transfectants incubated with increasing FXa
[4] = target: TFPI1-183-CD4 (UniProt P10646); test: as above
[5] = test system: synthetic C-terminal hirudin dodecapeptide analog comprising hirudin residues 53-64, with sulfato-Tyr64 (American Diagnostica)
[6] = test system: native full-length hirudin (Biopharm)

Substance: FXa
proteolytic activity of FXa (chromogenic substrate S-2765; time required to reach OD405=0.1) [1]: FXa activity was inhibited by expressed TFPI-CD4 in a dose dependent manner with the greatest inhibition noted when low concentrations of FXa (0.16 nM) were added
proteolytic activity of FXa (chromogenic substrate S-2765; time required to reach OD405=0.1) [2]: FXa activity was inhibited by expressed TFPI-CD4 in a dose dependent manner with the greatest inhibition noted when low concentrations of FXa (0.16 nM) were added

FXa concentration at which significant binding was detected [3]: 0.02 nM
FXa concentration at which significant binding was detected [4]: 0.02 nM
Substance: FXa (from UniProt P00742 41-488) (enzyme)

Substance: thrombin
thrombin-dependent catalytic activity (cleavage of chromogenic substrate S-2238) [5]: the dodecapeptide did not influence thrombin-dependent catalytic activity as measured by cleavage of S-2238
thrombin-dependent catalytic activity (cleavage of chromogenic substrate S-2238) [6]: no chromogenic conversion was observed with thrombin incubated with PPACK-HCl or hirudin as compared to thrombin incubated without inhibitor
